Patent US20260115256A1 (HANGZHOU SCIWIND BIOSCIENCES, published 2026)
*1 amine or outer side, *2 acyl side, *3 side chain or, on linkers, in order; H or OH if unused. Bridges are numbered along the chain shown (N, C = ends). Primed or numbered codes have the meaning given here. Where no end group is shown, it is not given here. Side-chain parts run from the residue outwards. [ ]: non-standard residue; d: D form. The star is where a group is joined. C20 diacid = O=C(O)CCCCCCCCCCCCCCCCCCC(=O)*; γGlu = O=C(O)[C@H](CCC(=O)[*:2])N[*:1]; βAsp = O=C(O)[C@H](CC(=O)[*:2])N[*:1]; Hyp = O=C(O)[C@@H]1C[C@@H](O)CN1; Aad = N[C@@H](CCCC(=O)O)C(=O)O; αMeP = C[C@@]1(C(=O)O)CCCN1; Orn = NCCC[C@H](N)C(=O)O; Aze = O=C(O)[C@@H]1CCN1; Dab = NCC[C@H](N)C(=O)O; Inp′ = not defined here; Pip′ = not defined here; Dap = NC[C@H](N)C(=O)O; AEEA = NCCOCCOCC(=O)O

B1: PD053 (peptide)
peptide: CNTATCATQRLAEFLRHSSNNLK([γGlu-C20 diacid])PILPPTNVGSNTX-NH2
modifications: disulfide 1-6 (inferred); not fully specified (residue 36); printed as CNTATCATQRLAEFLRHSSNNLKPILPPTNVGSNT-trans-Hyp-NH2
B2: PD054 (peptide)
peptide: CNTATCATQRLADFLRHSSNNLK([γGlu-C20 diacid])PILPPTNVGSNTX-NH2
modifications: disulfide 1-6 (inferred); not fully specified (residue 36); printed as CNTATCATQRLADFLRHSSNNLKPILPPTNVGSNT-trans-Hyp-NH2

These binders were tested against T1, human amylin receptor (AMY3) on CHO-K1/Ga15/AMY3 cells (human, UniProt P30988 25-474; O60896 24-148) (assay: cell-based or functional assay).
T1 sequence (looked up) 1: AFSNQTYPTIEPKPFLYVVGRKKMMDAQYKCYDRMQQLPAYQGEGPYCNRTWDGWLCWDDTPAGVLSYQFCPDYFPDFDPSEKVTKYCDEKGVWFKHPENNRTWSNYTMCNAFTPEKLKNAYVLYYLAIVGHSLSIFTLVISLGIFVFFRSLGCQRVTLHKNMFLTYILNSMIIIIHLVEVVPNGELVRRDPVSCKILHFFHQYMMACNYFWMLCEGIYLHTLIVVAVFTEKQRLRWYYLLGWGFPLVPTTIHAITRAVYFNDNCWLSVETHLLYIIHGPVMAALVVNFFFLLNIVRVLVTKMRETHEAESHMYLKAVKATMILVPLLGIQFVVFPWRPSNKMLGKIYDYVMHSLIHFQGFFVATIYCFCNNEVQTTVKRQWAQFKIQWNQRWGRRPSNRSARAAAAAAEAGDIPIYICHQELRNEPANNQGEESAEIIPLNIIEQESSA
T1 sequence (looked up) 2: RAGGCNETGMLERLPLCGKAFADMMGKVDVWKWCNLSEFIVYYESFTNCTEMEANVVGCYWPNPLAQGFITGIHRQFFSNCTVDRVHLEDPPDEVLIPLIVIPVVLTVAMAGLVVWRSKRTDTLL

Row | EC50, CRE-luciferase assay [nM] | Binder
1 | 1.13 | RCNTATCATQRLA[Aad]FLRHSSNNLK([γGlu-C20 diacid])PILPPTNVGSNTP-NH2 (disulfide 2-7 (inferred)) [PD043]
2 | 0.087 | {C20 diacid-AEEA-AEEA-Inp′}-KCNTATCATQRLADFLRHSSNNLKPILPPTNVGSNTP-NH2 (disulfide 2-7 (inferred)) [PD192]
3 | 0.074 | {C20 diacid}-D[AEEA][AEEA]KCNTATCATQRLADFLRHSSNNLKPILPPTNVGSNTP-NH2 (disulfide 5-10 (inferred)) [PD193]
4 | 0.074 | {C20 diacid-AEEA-AEEA}-DKCNTATCATQRLADFLRHSSNNLKPILPPTNVGSNTP-NH2 (disulfide 3-8 (inferred)) [PD194]
5 | 0.025 | {C20 diacid-βAsp-AEEA-AEEA}-KCNTATCATQRLADFLRHSSNNLKPILPPTNVGSNTP-NH2 (disulfide 2-7 (inferred)) [PD195]
6 | 0.064 | {C20 diacid-βAsp-AEEA-AEEA}-KCNTATCATQRLADFLRHSSNNLKPILPPTNVGSNTP-NH2 (disulfide 2-7 (inferred)) [PD196]
7 | 0.025 | {C20 diacid-γGlu}-RCNTATCATQRLADFLRHSSNNLRPILPPTNVGSNTP-NH2 (disulfide 2-7 (inferred)) [PD197]
8 | 0.029 | {C20 diacid-γGlu}-KGGGGRCNTATCATQRLADFLRHSSNNLRPILPPTNVGSNTP-NH2 (disulfide 7-12 (inferred)) [PD198]
9 | 2.62 | RCNTATCATQRLA[Dab]FLRHSSNNLK([γGlu-C20 diacid])PILPPTNVGSNTP-NH2 (disulfide 2-7 (inferred)) [PD044]
10 | 0.364 | RCNTATCATQRLA[Dap]FLRHSSNNLK([γGlu-C20 diacid])PILPPTNVGSNTP-NH2 (disulfide 2-7 (inferred)) [PD045]
11 | 1.68 | RCNTATCATQRLAEFL[Orn]HSSNNLK([γGlu-C20 diacid])PILPPTNVGSNTP-NH2 (disulfide 2-7 (inferred)) [PD046]
12 | 0.073 | RCNTATCATQRLAEFLRHSSNNLK([γGlu-C20 diacid])PILPPTNVGSNTP-NH2 (disulfide 2-7 (inferred)) [PD047]
13 | 0.047 | RCNTATCATQRLADFLRHSSNNLK([γGlu-C20 diacid])PILPPTNVGSNTP-NH2 (disulfide 2-7 (inferred)) [PD048]
14 | 0.215 | CNTATCATQRLAEFLRHSSNNLK([γGlu-C20 diacid])PILPPTNVGSNTP-NH2 (disulfide 1-6 (inferred)) [PD049]
15 | 0.119 | RCNTATCATQRLAEFLRHSSNK([AEEA-AEEA-γGlu-C20 diacid])LGPILPPTNVGSNTP-NH2 (disulfide 2-7 (inferred)) [PD002]
16 | 0.098 | CNTATCATQRLADFLRHSSNNLK([γGlu-C20 diacid])PILPPTNVGSNTP-NH2 (disulfide 1-6 (inferred)) [PD050]
17 | 0.075 | B1
18 | 0.049 | B2

Row | EC50, CRE-luciferase assay [nM] | Binder
19 | 0.909 | RCNTATCATQRLAEFLRHSSNNLK([γGlu-C20 diacid])PILPPTNVGSNT[cis‑Hyp]-NH2 (disulfide 2-7 (inferred)) [PD055]
20 | 0.586 | RCNTATCATQRLADFLRHSSNNLK([γGlu-C20 diacid])PILPPTNVGSNT[cis‑Hyp]-NH2 (disulfide 2-7 (inferred)) [PD056]
21 | 0.793 | RCNTATCATQRLAEFLRHSSNNLK([γGlu-C20 diacid])PILPPTNVGSNT[Pip′]-NH2 (disulfide 2-7 (inferred)) [PD057]
22 | 0.319 | RCNTATCATQRLADFLRHSSNNLK([γGlu-C20 diacid])PILPPTNVGSNT[Pip′]-NH2 (disulfide 2-7 (inferred)) [PD058]
23 | 0.939 | RCNTATCATQRLAEFLRHSSNNLK([γGlu-C20 diacid])PILPPTNVGSNT[Aze]-NH2 (disulfide 2-7 (inferred)) [PD059]
24 | 0.14 | RCNTATCATQRLAEFLRHSSNNK([AEEA-AEEA-γGlu-C20 diacid])GPILPPTNVGSNTP-NH2 (disulfide 2-7 (inferred)) [PD003]
25 | 0.246 | RCNTATCATQRLADFLRHSSNNLK([γGlu-C20 diacid])PILPPTNVGSNT[Aze]-NH2 (disulfide 2-7 (inferred)) [PD060]
26 | 0.815 | RCNTATCATQRLAEFLRHSSNNLK([γGlu-C20 diacid])PILPPTNVGSNT[3‑Am‑Pro]-NH2 (disulfide 2-7 (inferred)) [PD061]
27 | 0.374 | RCNTATCATQRLADFLRHSSNNLK([γGlu-C20 diacid])PILPPTNVGSNT[3‑Am‑Pro]-NH2 (disulfide 2-7 (inferred)) [PD062]
28 | 0.101 | RCNTATCATQRLAEFLRHSSNNLK([γGlu-C20 diacid])PILPPTNVGSNT[αMeP]-NH2 (disulfide 2-7 (inferred)) [PD063]
29 | 0.055 | RCNTATCATQRLADFLRHSSNNLK([γGlu-C20 diacid])PILPPTNVGSNT[αMeP]-NH2 (disulfide 2-7 (inferred)) [PD064]
30 | 0.044 | K([γGlu-C20 diacid])CNTATCATQRLAEFLRHSSNNFGPILPPTNVGSNTP-NH2 (ends and bridges not checked) [PD066]
31 | 0.034 | {C20 diacid-γGlu}-KCNTATCATQRLADFLRHSSNNFGPILPPTNVGSNT[Hyp]-NH2 (disulfide 2-7 (inferred)) [PD067]
32 | 0.032 | K([γGlu-C20 diacid])CNTATCATQRLADFLRHSSNNFGPILPPTNVGSNT[Hyp]-NH2 (disulfide 2-7 (inferred)) [PD068]
33 | 0.039 | {C20 diacid-γGlu}-KCNTATCATQRLADFLRHSSNNLGPILPPTNVGSNT[Hyp]-NH2 (disulfide 2-7 (inferred)) [PD069]
34 | 0.102 | RCNTATCATQRLAEFLRHSSNNLK([AEEA-AEEA-γGlu-C20 diacid])PILPPTNVGSNTP-NH2 (disulfide 2-7 (inferred)) [PD004]
35 | 0.038 | K([γGlu-C20 diacid])CNTATCATQRLADFLRHSSNNLGPILPPTNVGSNT[Hyp]-NH2 (disulfide 2-7 (inferred)) [PD070]
